In a protein production outcome set (Wang et al. 2014):

Experiment: label from the status in PepcDB records

Sequence | protein production
MTDQTKPSWTADRGADLLGALFFLTRLPTPTTHTPPPFTRAVWAFPLAGALVGLIGALAVGGAQALGLSPTLAALLGVSVMALVTGAMHEDAVADIADGFGGGRTRERVLEIMRDSRVGAFGVTALVLVLALRVAALAALAGGPWAMAALVCAAGLGRGAAVLMLGLLPPARTDGLGASFGRPQQASLAFALILCLVLAVVLLPGAAPAVALVGMVAPTLYLAWRAKVRIGGQTGDVAGAAALIGETLALVGLSAMLGAAP | failed
MDTTAVLLKGPKDLDVDTLQLHVPGDGDLVVEIEHSGISTGTEKLFWSGEMPPFPGMGYPLVPGYEAVGEVVEADRATGFKVGERVFVPGANCYDGAFGLFGGAASRVVTASDRVTRIDAGHGASGALLALAATARHSMAGLNKSVPDLIVGHGVLGRLLARLTIAAGAPAPMVWEIDESRRKGAQGYEVIAPEDDPRRDYTSVYDASGSVEVLNDLVGRLAKGGEIVLAGFYTTAISFAFPPAFMKEARFRVAAEWTHDDLAATRALVEGGSLSLENLITHQASHLNARAAYAQAFTDPDCLKMILNWKDVA | failed
MPETYIITPNLNGVSFLEVYFRSLLRQTYEDFRVVFIDNGSSDGSVDFIKSNFSEYLGDRIILIENHENLGFAASNNQGIRIALDDPQCRYVVCLNNDTEVLPDFIENLILAAGDDERVGSVQARMIWGQNRKLIDSAGLEYSLNGLGFNRGAYEPVENFNERARILGCCAGACLYRREALEDVEVDAEYFDEDFFAYYEDFDLALRLRSAGWDSLYAPDATVYHYKGGTNPFISDFTVYHNWRNYTWTFIKNMPADLLLMCLPLFVLTEIIQVLLNIKRGKLIILRAKYDAYRGLGRVIRKRRALKRVPESEIKEYLTMRWSVKVPSPQED | failed
MSPLILMITAGAGIALLLFLVLKYKFQPFVALMLVSILVALVAGVKPAELVATIEGGMGKTLGHIAIIIALGAMIGRIIELSGGAEALAKTLIERFGNRRTPLALTMAGFIIGVPVFFEVGVIILMPLAYGVARSARKPLLVFALPMCAALLTVHAFLPPHPGAVAAASQLGADLGRVLMFGLPLTALLCYVGYRVAGRMTRRNYPMTDDIRAEVYGPHVTNEDLAAWNNGSEQPASPQAVAAVAHMGLEESTGSLAAKLPPAPPPGFGLIVSLILLPIVLILLGTLATSLLPLESTLRGVLTVLGAPLVALLLDTLLCAWLLGSRRGWSRSQVSDVIGSALPGVAMVILIAGAGGVFGKVLVDTGIGAVVSDLLRTTGLPVLALGFLLTMLLRAVQGSTTVALVTTAGIIAPLIATLNLSPNHMALLCLAMGGGGLAMSHINDAGYWIFTKLAGLNVADGLRTWTVITTLLGTLGFCITLLIWPFV | failed
MDALLILGGLLLMVAGYIWVIVLAFGTGLLWGYGSLFPPVALAYIGVHWRTARKGVGLAALGCIPLVVGLALLASHDAARLEAILSLRWLKPEARPPAELAIALSGEFNGKPFAPQSGELIGGVLSLRQGHDFYAQRELQIRLPAQPLGALRLDVLPEDGGALPEVELSWLQPDQDLPEARRLLRGYTLHLDLRPKAPNRLEGEFHLSLPSDYRTTLSGHVELYTDRLRYRHGKVDLGYDSDDTLALVLRDYLQRRFASRDVSLVRAPSWRAASHARPLRIEALVAGQAQVLELTLEKNARREWTVRGDAFPALPAEPATVAAAAPPEPQALPAPGNATLDLELVQVEPQRYSQRLVKATTVRGRIAEGRFTGLDSEGRLVIRREMPGAGEASYLLRPAEIARLELLER | failed
MAAEIGSDSQLKRRRRRDPEGSEKTELSEREPALAVEGREENDDENEERWVGPLPVEATLAKKRKVLEFERVYLENLPSASMYERSYMHRDVITHVVCTKTDFIITASHDGHVKFWKKIEEGIEFVKHFRSHLGIIESIAVSSEGALFCSVGDDKAMKVFDVVNFDMINMLKLGYFPGQCEWIYCPGDAISSVAASEKSTGKIFIYDGRGDNQPLHIFDKLHVSPLTQIRLNPVYKAVVSSDKSGMIEYWTGPPHEYKFPKTVNWEYKTDTDLYEFAKCKAYPTSICFSPDGKKIATIGSDRKVRIFRFLTGKLMRVFDESLSMFTELQQMRQQLPDMEFGRRMAVERELEKVDAVRLINIVFDETGHFVLYGTMLGIKVINVETNRCVRILGKQENIRVMQLALFQGIAKKHRAAATIEMKASENPVLQNIQADPTIVCTSFKKNRFYMFTKREPEDTKSADSDRDVFNEKPSKEEVMAATQAEGPKRVSDSAIVHTSMGDIHIKLFPVECPKTVENFCVHSRNGYYNGHTFHRIIKGFMIQTGDPTGTGMGGESIWGGEFEDEFHSTLRHDRPYTLSMANAGSNTNGSQFFITVVPTPWLDNKHTVFGRVTKGMEVVQRISNVKVNPKTDKPYEDVSIINITVK | failed
PEAMLIVDQNGQIVFSNSRCQQLFGYDAKAMLALQIETLLPEELRHLHTGERLDFLREGRDRPMASARHVRALKSDGGEFVAEIALSILPSDFD | failed
MVKHQQTPAYIAAILYSFIIGLSFLFVKIALQTAEPFDILAHRFTIAFAAATVPILFGWVKLSILVKDVIDILPLALLYPALFFSFQAFGLVYSSSSEAGIIQAAIPIFTMVFAAYVLKERPTWTQKGFTVLSVAGVMFIFVMKGVDVESASLKGSLLILLSALSSAMYNTAARKMTQRFKLTELTYIMSAIGFVVFNAIALVRHGAAGTVGTYFLPFREPGFVLAIVYLGVLSSLVTSFLSNYTLSRIEAFKMSAFNHVSTIVTMIAGFVILNESLAWYHLAGAVCIMIGVVGSNINLEKKTKRPGMPAKK | failed
MEWQAEQAYNHLPPLPLDSKLAELAETLPILKACIPARAALAELKQAGELLPNQGLLINLLPLLEAQGSSEIENIVTTTDKLFQYAQEDSQADPMTKEALRYRTALYQCFTQLSNRPLCVTTALEICSTIKSVQMDVRKVPGTSLTNQATGEVIYTPPAGESVIRDLLSNWEAFLHNQDDVDPLIKMAMAHYQFEAIHPFIDGNGRTGRVLNILYLIDQQLLSAPILYLSRYIVAHKQDYYRLLLNVTTQQEWQPWIIFILNAVEQTAKWTTHKIAAARELIAHTTEYVRQQLPKIYSHELVQVIFEQPYCRIQNLVESGLAKRQTASVYLKQLCDIGVLEEVQSGKEKLFVHPKFVTLMTKDSNQFSRYAL | not failed
SGRKRLITDSYPVVKRREGPAGHSKGELAPELGEEPQPRDEEEAELELLRQFDLAWQYGPCTGITRLQRWCRAKHMGLEPPPEVWQVLKTHPGDPRFQCSLWHLYPL | failed
MNTPLRRVAIAVMVMVVALLANATYVQVIKADNLRADPRNSRVLLDEYSRQRGQISAAGQVLAASVPTDDRYKYLRTYPPNPAAPSSPLANAPVTGFYSMQYGSTGLERSEDPVLNGSDNRLFGRRFFDLVSGRDPRGGNVVTTINPVMQQVAYDQLTAKGYTGSVVAIEPSTGRILTMVSTPSYDPNSLASHDGTETTQAWEALNADPEKPLINRAVSQTYPPGSTFKVVVTAAALAAGTTPDTQLTAAPQITLPGTSTTLENYNGSTCGGAPTASLREAFARSCNTAFVELGVKTGTDAVSDQSSALGIGGQMPGVPFPVADSTIGSIPDDAALGQSSIGQRDVALTPLQNAMIAATVANGGVRMQPQLVSELQGPDLSNLATTNPVSEGQAMSSQVAATLTDLMIGSENNTSGEGKIPGVQIASKTGTAEHGTDPRNTPPHAWYIGFAPAQNPTVAIAVIVEDGGDRALAATGGSVAAPIGRAVIAAGLQGG | failed
MTEVAHTASGSTNTMDREGLPVAETTCAPGLPLWARPEARTALGDTLRPGGFSLTDRLATLAGVHPGWRVLDVGCGTGATVLHLRQRYGASAFGCDRSTSLTPGSNNHKGLPVIAADAANLPFADGSMKMVFCECVLSLLVKPLEVLRGLRRLLVPGGLLGVSDLYLRGEGHARVTEGSCLAWQATRMRIESLLHEAGFALHTFEDHSPLLRETAARLALSGALHGGAMNCGERAFPSRDACRRCSPEGIAAPPQATPCSMTECSFSPPATRAVTEQVARPGYFLLLAQSLKGTRED | failed
GEVKQIVGTPRDITQRKRREQMLKSRRRKIEALYRATSGLLSVETRDAVPGRIAEVLQEVFDFPLRHVGLVEGEMLVPKETVGEDLSRMPEPKAQPLSEDLVATRAIQAGEAVVVESTGGLENDLDYGTLSTLAGIPIGGHGAVVVGKEAGTFDALDLRLLEVLGGYGTLVLGRLEREERLVQAREEAEEAAQLKSAMLANMSHEVRTP | failed
